# Assay results taken from patent publication US20240026407A1, “MODIFICATION OF SAPONINS” (GLAXOSMITHKLINE BIOLOGICALS SA, priority 2020, published 2024).
# B1: 850 (protein, listed as Bifidobacterium scardovii)
# chain: MSESTYPSVKDLTLEEKASLTSGGDVWHLQGVESKGIPGYMITDGPHGLRKSLASSAGETDLDASVPATCFPPAAGLSSSWNPELIRKVGEAMGEECIQEKVAVILGPGVNIKRNPLGGRCFEYWSEDPYLAGHEAIGIVEGVQSKGVGTSLKHFAANNQETDRLRISANIGPRALREIYLPAFEHIVKTAQPWTVMCSYNRINGVYSAQNRWLLTDVLRGEWGFEGIVMSDWGADHDRVASLNAGLNLEMPPSYTDDEIVHAARDGRIAPAQLDAMAQGMIDLVNRTRAAMSVDDYRFDVDAHDEVAHQAAVESIVMLKNDGAILPLDADAASGQKIAVIGEFARTPRYQGGGSSHITPTRMTSFLDALDERGIAAEFAPGFTLDLEPADPALEAQAVDAAKRADTVLMFLGLPEAAESEGFDRETLDIPAKQIALLDAVAAANDQVVVVLSNGSAVSVAPWAGRAKGILESWLLGQAGGPALADVIFGRTSPSGKLAQTIPMDINDDPSMVNWPGEEGHVDYGEGVFVGYRYYDTYGKAVGYPFGYGLSYATFEISKAAVARTGANAAVVTATVTNTSGVDGAETVQVYVAPGKADVARPRHELKGFVKVFLKAGESADVAIDLDERAFAYWSERYDDWHIESGEYAVEIGTSSRDIAATVTVALEGDGKTQPLTAWSTYGEWSSDPIGAKVMAAVAAAGEAGELPKLPDNAMMNMFLMAMPINSLPTLMSEGGKSITRFMLDEYARLTK
# B2: 868 (protein, listed as Dictyoglomus thermophilum)
# chain: MKLEYKIPYRIERGEQTNFSPLFIRIISQGGKQMEKDIKKLISQMTLEEKASLCSGLDFWHTKPIERLGIPSIRMSDGPHGLRKEETMFSKTVPATCFPTAVTIAASWDKLLAEKMGKAIGEECQAENVQILLGPGINMKRSPLCGRNFEYYSEDPILAGELAAHFIKGVQSQGVGTSLKHFAANNQEHRRLTVDAIIDERTLREIYLTAFEKAVKEAKPWTVMCSYNKVNGTYASENEFLLTKVLREEWGFEGFVVSDWGAVNDRVKGLAAGLDLQMPYDGGNGDKKIIEAVKSGKLPEEVLDRAVERILKIVFKAIENKKENATYDKEAHHKLAREIARECFVLLKNENNILPLKKEGKIALIGAFAKKPQIQGGGSAHVNPTRVDDAVEEIKKLVGDKVEILYADGYHIEKDDVDEKLIEEAKEIAKKADVVVIFAGLPERYESEGFDRPHMKMPESHNRLIEEVAKVNSNLVVVLSNGAPIEMPWVDKPKAILETYRGGQAWGGAVADVLFGVVNPSGKLPESFPKKLSDNPSYLFFPGEDDRSEYREGIFIGYRYYDKKEMEVLFPFGYGLSYTTFEYSDLKLDKKEMKDDEVLKVSVKVKNTGKVKGKEIVQLYVRDVKSNYIRPEKELKGFEKVELEPGEEKEVVFYLDKRAFAFYNIDIKDWYVEDGEFEILIGKSSRDIVLKDKVFVKSTTKIKRHYHINSTIGDIMSDPEASAKFKHILEQFASAFPAFSSEEAIMNFAEMMKYMPLRNLIHFGQGKFTEEMLENLLKEINS
# B3: 879 (protein, listed as Morchella conica)
# chain: MTVSPLPKDLQKKVNDVLDSLTLLEQVSLLAGKDFWRTVEIPGKVPSIKVTDGPSGARGQFFSGGTKAAFFPSGVSLAATFDPELITHIGNALGQETKTKAAQVLLAPTACNHRSPLGGRNFESFSEDPYLSGKLAASYISGVQAEGVAVTMKHFVANEQETKRFSVNEIIDERALREIYLKPFEIAVREAGPWGIMSSYNKVNAHHADLHPFSMKQVLRAEWGWDGLVMSDWGGTNSTAESLIAGLDLEMPGPTRRRGELLLKAVQDTNSSPELLAAIKTGARHVLELIARTGRWGKFQEAEEQAVDKLEHRELIRKTGAHGIVLLKNEGATLPIKREQIKSVAWIGPNANETIAGGGGSANLNPHYLTNPLESFTAAVEENDIKVAYEIGCQTEKWVRVFPVEEGRARTAPSATEGAPGLKVDFFGGRECSGECVASNVMTTSNIFLMDGKPPVLGDQDYSVRITTYIRPEATGEHVVGVGSIGPTKIYVDDKLLIDHTHWIELGELFFTSGSEEVTQKIHLEAGKWYKLVAETTSKSPEQKLPDMGNDNLDFASAIGIRLGIDAVRDVQEYIDRAATLAKKSDVAVVVVGMNNEWESEGYDRHTMALPGKQNELIEAVVKANPNTIVVNQSGCPVTMPWLDRVPAVLQAWYQGQEAGNALVDVLLGKVNPSGRLPITFPKRLEDNPSFGNFGDGGEKNQIAYTEGIYVGYRHYNSRDIPVLFPFGFGLSYTSFELGAPTVDQAAFEIGKKITVQVPVKNTGAIKGIETVQVYLAPKKSAVDRPKRELKGFAKIELEAGESGVARIELDHYAPGLFCEERKCWRALEGAYVVEVGRNVQEIDGSVEVAVEREYEWVF
# B4: 826 (protein)
# chain: MSDYPSVNDLTLEEKAALTSGTNPWSLGNVAAKGLPNYTITDGPHGLRKAQNTESMDVEENVPATCFPPAAGMACSWNPELVERVGEAMGEECIQEQVAVILGPGVNIKRNPLGGRCFEYWSEDPYLAGHTAVGIVKGVQSKGVGTSLKHFAANNQETDRLRISATISPRAMREIYLPAFEYIVKTAQPWTVMCSYNKINGVFSSQNRWLLTDVLRGEWGFKGIVMSDWGAVSDRVAALNAGLNLEMPPSNTDDQIVAAAKDGRIPAAQLDEMAQGMIDLVAKARPAMSRDGYRYDVDAHNEVARQAAVESMVLLKNEDATLPVAKGAKIAVIGEFARTPRYQGAGSSLINPTKLTSFLDAIEERGVAADFAPGFTLDDAAQDPALTEQAVTAAQQADVVLLFLGLPAAYESEGFDRTTLDIPAKQVEVLDAVAAANPNVAVVLSNGSVVSMPWRGRAKAILETWLLGQAGGAALADVIFGDETPSGKLAQTIIDDVNDDPSAMNWPGEEGHVDYGEGVFVGYRYHDTFRKQVTYPFGYGLSYATFDVHDATVAKTGPRTAEVTVTVTNTSDVAGAETVQVYVAPPKAKVARPVHELKGFAKVALEPGESKNVTIALDDRAFAYWSERFDDWHVEGGTYTVEVGVSSRDIVSRIDVEIDDDGKIMNLDEWSTFGEWLDDPIGAPILQHVLDDMAKEAGHPVIPDSALMVMFLRSMPLRSLSVILGEAGEQVAANLTEAYRKATA
# modifications: Bifidobacterium saeculare
# Experiment: Experiment 5-2: screening of additional glucosidases for deglycosylation with QS-18 in crude bark extract (80%) at pH 6 and 35 deg C
# Type: biochemical, Quillaja saponaria
# Conditions: CBE 80%, pH 6, 35 deg C, 18 hours; UV HPLC
# Outline: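 Deglycosylation of QS-18 was monitored by UV HPLC after MeCN/AcOH quench with hexanophenone. The reaction ran 18 hours at 35 deg C, shaking, combining clarified pH 6 lysate with crude bark extract neutralised to pH 6 by NaOH.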
row,Molecule,Experiment 5-2 % conv [%]
1,B1,<0.5
2,B2,<0.5
3,B3,<0.5
4,B4,0.8

# Experiment: Experiment 5-1: screening of additional glucosidases for deglycosylation with purified QS-18 (0.04 mg/ml) at pH 7.5 and 30 deg C
# Type: biochemical, Quillaja saponaria
# Conditions: pH 7.5, 30 degrees C, 18 hours, LCMS/MS
# Experimental: The 94 additional genes, together with positive control (DNA encoding SEQ ID No. 262) and negative control, were transformed, expressed, lysed and reacted in the same manner as described above for Experiment 4-1, except the reaction was incubated at 30 degrees C. for 18 hours.
# Samples were analysed by LCMS/MS according to the procedure in Experiment 4-1.
row,Molecule,Experiment 5-1 % conv [%]
1,B1,95.3
2,B2,89.9
3,B3,90.1
4,B4,86.9

# Experiment: Experiment 5-3: screening of additional glucosidases for deglycosylation with QS-18 in treated bark extract (80%) at pH 6 and 35 deg C
# Type: biochemical, Quillaja saponaria
# Conditions: TBE 80% (QS-21 approx. 4 g/L), pH 6, 35 deg C; UV HPLC
# Experimental: Experiment 5-1 was repeated, replacing CBE with Treated Bark Extract (TBE) at pH 6. TBE was prepared from CBE by PVPP treatment and concentration, to provide TBE with a QS-21 concentration of approximately 4 g/L. TBE was adjusted to pH 6 by dropwise addition of 2M NaOH with stirring.
row,Molecule,Experiment 5-3 % conv [%]
1,B1,<0.5
2,B2,<0.5
3,B3,<0.5
4,B4,1.4
